Measured values taken from publication PMC11415397, “The Alpha-Synuclein Gene (SNCA) is a Genomic Target of Methyl-CpG Binding Protein 2 (MeCP2)—Implications for Parkinson’s Disease and Rett Syndrome”.

Experiments:
MeCP2 wild type = MeCP2 wild type (UniProt P51608 1-486); assay: EMSA; shift from 30 nM; 10 mM Tris pH 7.5, 1 mM EDTA, 100 mM KCl, 100 uM DTT, 5% glycerol, 10 ug/ml BSA, 30 min room temperature; 50 fmol probe in 5 ul; MeCP2 30-75 (nmol in Methods and legend, nM in Results); details: protein: recombinant; tags: His; label: IRDye700 at 5' of LUEGO (S27); three strands: S27 and S23 lie side by side (nick) on S24; blunt
MeCP2 R255X [1] = biological target: T1, MeCP2 R255X (UniProt P51608 1-254); assay: as above; details: protein: recombinant; tags: His; label: IRDye700 at 5' of LUEGO (S27); three strands: S27 and S23 lie side by side (nick) on S24; blunt
MeCP2 R255X [2] = biological target: T1, MeCP2 R255X; assay: EMSA; strongest shift, already at 30 nM; 10 mM Tris pH 7.5, 1 mM EDTA, 100 mM KCl, 100 uM DTT, 5% glycerol, 10 ug/ml BSA, 30 min room temperature; 50 fmol probe in 5 ul; MeCP2 30-75 (nmol in Methods and legend, nM in Results); details: protein: recombinant; tags: His; label: IRDye700 at 5' of LUEGO (S27); three strands: S27 and S25 lie side by side (nick) on S26; blunt

B1: SNCA intron 1 CpG1 probe, methylated (dsDNA)
DNA 1: GTGCCCTGGTCTGG
DNA 2: CTGGCTTTCGTCCTGCTTCTGATATTCCCTTCTC
DNA 3: GAGAAGGGAATATCAGAAGCAGGACGAAAGCCAGCCAGACCAGGGCAC
modifications: CpG 5mC, in vitro methylated (enzyme for the probe not stated in EMSA section)
MeCP2 wild type
  binding result: binds
MeCP2 R255X [1]
  binding result: binds

B2: SNCA intron 1 CpG2 probe, methylated (dsDNA)
DNA 1: GTGCCCTGGTCTGG
DNA 2: GCTGAGAGATTAGGCTGCTTCTCCGGGATCCGC
DNA 3: GCGGATCCCGGAGAAGCAGCCTAATCTCTCAGCCCAGACCAGGGCAC
modifications: CpG 5mC, in vitro methylated (enzyme for the probe not stated in EMSA section)
MeCP2 R255X [2]
  binding result: binds
